Experiments:
[1] = biological target: T1, CEACAM3 transiently expressed on HEK293 cells (Homo sapiens (Human), UniProt P40198 35-252); assay: flow cytometry on transfected HEK293 cells
T1 sequence: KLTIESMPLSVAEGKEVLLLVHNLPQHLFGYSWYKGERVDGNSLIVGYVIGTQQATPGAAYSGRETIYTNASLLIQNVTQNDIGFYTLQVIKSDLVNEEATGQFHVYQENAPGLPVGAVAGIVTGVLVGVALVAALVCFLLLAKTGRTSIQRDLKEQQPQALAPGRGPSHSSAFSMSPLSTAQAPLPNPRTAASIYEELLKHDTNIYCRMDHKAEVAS

[2] = biological target: T2, full-length human CEA on cells (MKN45, LOVO, L929/huCEA, CT26/CEA, CT26-OS8-CEA) (human, UniProt P06731 35-685); assay: flow cytometry on MKN45 cells, no soluble CEA
T2 construct: also called CEACAM5; native CEA
T2 sequence: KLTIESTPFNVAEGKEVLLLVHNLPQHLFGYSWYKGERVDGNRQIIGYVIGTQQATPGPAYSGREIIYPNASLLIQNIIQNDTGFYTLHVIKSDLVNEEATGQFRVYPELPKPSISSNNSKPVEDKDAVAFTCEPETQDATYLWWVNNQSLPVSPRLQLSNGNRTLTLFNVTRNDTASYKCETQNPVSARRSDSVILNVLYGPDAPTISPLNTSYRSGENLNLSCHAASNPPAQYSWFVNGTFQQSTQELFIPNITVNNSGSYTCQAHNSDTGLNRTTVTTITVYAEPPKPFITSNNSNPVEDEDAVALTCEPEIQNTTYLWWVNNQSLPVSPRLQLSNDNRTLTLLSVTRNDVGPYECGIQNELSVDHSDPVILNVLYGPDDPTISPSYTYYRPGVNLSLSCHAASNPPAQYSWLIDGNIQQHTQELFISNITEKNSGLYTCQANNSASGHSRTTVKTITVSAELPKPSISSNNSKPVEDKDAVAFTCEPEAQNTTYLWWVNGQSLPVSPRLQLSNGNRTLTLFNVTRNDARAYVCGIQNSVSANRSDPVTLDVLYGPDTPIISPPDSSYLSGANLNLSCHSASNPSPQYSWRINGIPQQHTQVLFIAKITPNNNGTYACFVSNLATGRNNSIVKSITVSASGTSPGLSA

[3] = biological target: T3, CEACAM7 transiently expressed on HEK293 cells (Homo sapiens (Human), UniProt Q14002 36-242); assay: flow cytometry on transiently transfected HEK293 cells [panel B]
T3 sequence: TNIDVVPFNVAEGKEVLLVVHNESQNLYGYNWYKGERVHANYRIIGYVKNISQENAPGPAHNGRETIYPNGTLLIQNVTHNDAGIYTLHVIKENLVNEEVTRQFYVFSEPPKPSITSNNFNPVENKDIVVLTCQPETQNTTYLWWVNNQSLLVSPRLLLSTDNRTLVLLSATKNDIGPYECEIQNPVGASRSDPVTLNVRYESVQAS

[4] = biological target: T4, CEACAM8 transiently expressed on HEK293 cells (Homo sapiens (Human), UniProt P31997 35-320); assay: as above
T4 sequence: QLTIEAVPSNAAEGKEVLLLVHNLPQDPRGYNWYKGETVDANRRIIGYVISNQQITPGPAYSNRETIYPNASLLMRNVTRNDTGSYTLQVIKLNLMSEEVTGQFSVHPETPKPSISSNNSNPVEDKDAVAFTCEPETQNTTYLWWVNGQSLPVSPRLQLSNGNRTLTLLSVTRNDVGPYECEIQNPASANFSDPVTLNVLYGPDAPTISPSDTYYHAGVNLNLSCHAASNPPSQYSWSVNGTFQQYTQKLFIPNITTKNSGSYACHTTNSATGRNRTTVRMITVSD

[5] = biological target: T5, human CEACAM6, amino acids 1-320 with C-terminal 6xHis tag (human, UniProt P40199 35-320); assay: antigen ELISA, antigens coated at 10 µg/ml, anti-human Fc-HRP [panel A]
T5 sequence: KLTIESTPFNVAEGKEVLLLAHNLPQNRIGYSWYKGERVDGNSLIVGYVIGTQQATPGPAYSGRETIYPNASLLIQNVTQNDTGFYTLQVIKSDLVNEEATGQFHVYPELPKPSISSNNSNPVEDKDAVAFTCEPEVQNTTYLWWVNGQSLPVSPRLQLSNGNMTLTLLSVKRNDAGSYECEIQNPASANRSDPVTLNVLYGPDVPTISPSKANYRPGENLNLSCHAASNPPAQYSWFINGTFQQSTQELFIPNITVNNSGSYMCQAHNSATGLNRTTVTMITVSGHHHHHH

[6] = biological target: T6, CEACAM1 (Cat. No. 10822-H08H, Sino Biological) (Homo sapiens (Human), UniProt P13688 35-428); assay: as above
T6 construct: Bought protein
T6 sequence: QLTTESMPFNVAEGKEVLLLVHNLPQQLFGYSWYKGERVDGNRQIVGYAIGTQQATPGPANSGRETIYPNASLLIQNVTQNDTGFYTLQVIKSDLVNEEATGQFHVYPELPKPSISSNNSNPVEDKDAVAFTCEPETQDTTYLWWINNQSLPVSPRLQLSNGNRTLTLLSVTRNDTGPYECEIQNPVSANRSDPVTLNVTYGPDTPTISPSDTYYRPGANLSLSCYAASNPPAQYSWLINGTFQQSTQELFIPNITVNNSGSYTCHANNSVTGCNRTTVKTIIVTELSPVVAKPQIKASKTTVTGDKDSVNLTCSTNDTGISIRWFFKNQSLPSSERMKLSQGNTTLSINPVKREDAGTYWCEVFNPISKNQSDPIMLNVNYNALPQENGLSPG

B1: BGA113K (BGA113 with Y57K in the heavy chain) (antibody, human IgG1, V domains shown)
VH: QVQLVQSGAEVKKPGASVKVSCKASGYIFTSYYLHWVRQAPGQGLEWIGYINPQTGKTSYAQKFQGRVTMTRDTSTSTVYMELSSLRSEDTAVYYCAREYGNYNYPLDYWGQGTLVTVSS
VL: DIQMTQSPSSLSASVGDRVTITCRASENQYGYLAWYQQKPGKVPKLLIYNYKNLVEGVPSRFSGSGSGTDFTLTISSLQPEDVATYYCQHHLGTPYTFGQGTKVEIK
Does B1 bind [1]?
Result: no binding (tested: 2 ug/ml)

And the “EC50 (read off the curve)” value [2]?
The value was about 0.8 µg/mL.

Does B1 bind [3]?
Result: no binding (tested: 2 µg/ml (not on the sheet))

Does B1 bind [4]?
Result: no binding (tested: 2 µg/ml (not on the sheet))

Does B1 bind [5]?
Result: no binding (tested: not shown)

Does B1 bind [6]?
Result: no binding (tested: not shown)

From patent US20240190989A1 (BEIGENE SWITZERLAND, published 2024)
